Like-named read-outs stand apart in the source and are kept apart here.
Key:
[1] = molecular target: recombinant human BCMA-his protein (Acro biosystems, Cat #BCA-H522Y) (human) (UniProt Q02223); test: capture ELISA: antibody captured on the plate, biotin-labeled human BCMA-his detected with streptavidin-HRP
[2] = molecular target: recombinant human BCMA-his protein (Acro biosystems, Cat #BCA-H522Y) (human) (UniProt Q02223); test: competitive ELISA: coated human BCMA-his, blocked ligand biotin-labeled BAFF-Fc
[3] = molecular target: recombinant human BCMA-his protein (Acro biosystems, Cat #BCA-H522Y) (human) (UniProt Q02223); test: SPR Biacore, antibody captured by anti-human IgG on CM5, BCMA-his flowed
[4] = molecular target: recombinant human BCMA-his protein (Acro biosystems, Cat #BCA-H522Y) (human) (UniProt Q02223); test: competitive ELISA: antibody pre-mixed with biotin-labeled human BCMA-his, competitor coated BCMA BM1 (self-competition)
[5] = molecular target: recombinant human BCMA-his protein (Acro biosystems, Cat #BCA-H522Y) (human) (UniProt Q02223); test: as above; remark: listed apart in the source
[6] = molecular target: recombinant human BCMA-his protein (Acro biosystems, Cat #BCA-H522Y) (human) (UniProt Q02223); test: competitive ELISA: coated human BCMA-his, blocked ligand biotin-labeled BAFF-Fc; remark: listed apart in the source
[7] = molecular target: recombinant human BCMA-his protein (Acro biosystems, Cat #BCA-H522Y) (human) (UniProt Q02223); test: BLI Octet RED96, antibody on AHC sensor, BCMA-his in solution
[8] = molecular target: recombinant human BCMA-his protein (Acro biosystems, Cat #BCA-H522Y) (human) (UniProt Q02223); test: SPR Biacore T200, antibody captured on Protein G chip, BCMA-his flowed
[9] = molecular target: recombinant human BCMA-his protein (Acro biosystems, Cat #BCA-H522Y) (human) (UniProt Q02223); test: capture ELISA: antibody captured on the plate, biotin-labeled human BCMA-his detected with streptavidin-HRP; remark: listed apart in the source
[10] = molecular target: human BCMA on U266 cells (human) (UniProt Q02223); test: cell-based or functional assay
[11] = molecular target: recombinant human BCMA-his protein (Acro biosystems, Cat #BCA-H522Y) (human) (UniProt Q02223); test: competitive ELISA: antibody pre-mixed with biotin-labeled human BCMA-his, competitor coated BCMA BM1
[12] = molecular target: recombinant human BCMA-his protein (Acro biosystems, Cat #BCA-H522Y) (human) (UniProt Q02223); test: SPR Biacore, antibody captured on CM5 chip, BCMA-his flowed
[13] = molecular target: T1, cynomolgus BCMA-his protein (Acro biosystems, Cat #BCA-052H7) (cynomolgus monkey, UniProt A0A2K5UD97 1-53); test: indirect ELISA on coated cynomolgus BCMA-his
T1 construct: Bought; also called cynomolgus monkey BCMA protein; not shown: his tag
T1 sequence (A0A2K5UD97 entry or part of it): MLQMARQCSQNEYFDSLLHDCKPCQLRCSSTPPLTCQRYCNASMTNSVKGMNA

[14] = molecular target: T2, human BCMA on U266 cells (human, UniProt Q02223 1-184); test: cell based binding FACS on U266 cells, MFI
T2 construct: whole, on cells; Endogenous protein of the cell line; also called human BCMA on the cell surface; U266 cells expressing human BCMA
T2 sequence (looked up): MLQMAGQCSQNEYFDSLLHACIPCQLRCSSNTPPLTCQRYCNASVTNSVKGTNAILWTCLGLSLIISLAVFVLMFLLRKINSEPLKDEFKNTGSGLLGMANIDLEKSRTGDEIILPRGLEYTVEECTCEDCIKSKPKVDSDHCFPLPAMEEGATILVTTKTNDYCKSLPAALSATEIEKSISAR

[15] = molecular target: recombinant human BCMA-his protein (Acro biosystems, Cat #BCA-H522Y) (human) (UniProt Q02223); test: competitive ELISA: antibody pre-mixed with biotin-labeled human BCMA-his, competitor coated BCMA BM1; remark: listed apart in the source
[16] = molecular target: recombinant human BCMA-his protein (Acro biosystems, Cat #BCA-H522Y) (human) (UniProt Q02223); test: SPR Biacore T200, antibody captured by anti-mouse IgG on CM5, BCMA-his flowed
[17] = molecular target: T3, human BCMA on 293F-BCMA cells (human, UniProt Q02223 1-184); test: cell based binding FACS on 293F cells expressing human BCMA, MFI
T3 construct: Stably expressed on 293F cells prepared in house; also called 293F cells expressing human BCMA; Full length human BCMA
T3 sequence: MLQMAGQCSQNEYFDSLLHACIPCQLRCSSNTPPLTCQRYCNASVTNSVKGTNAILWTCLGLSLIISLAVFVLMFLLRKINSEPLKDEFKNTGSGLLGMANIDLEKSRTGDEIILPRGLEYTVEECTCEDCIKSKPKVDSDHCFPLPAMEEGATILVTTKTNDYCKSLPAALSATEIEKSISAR

[18] = molecular target: T2, human BCMA on U266 cells; test: cell-based or functional assay

| Molecule | Kd [3] [nM] | IC50 [6] [nM] | Kd [7] [nM] | koff [7] [s⁻¹] | kon [7] [M⁻¹ s⁻¹] | EC50 [9] [nM] | EC50 [13] [nM] | EC50 [17] [nM] | further results |
| --- | --- | --- | --- | --- | --- | --- | --- | --- | --- |
| BCMA BM1, full-length antibody containing the BCMA-binding portion of GSK2857916 | 0.578 | 12.6 | 0.436 | 0.000125 | 286000 | 0.569 |  |  | EC50 [1]: 1.11 nM; IC50 [2]: 10.7 nM; koff [3]: 0.000141 s⁻¹; kon [3]: 244000 M⁻¹ s⁻¹; IC50 [4]: 2.89 nM; IC50 [5]: 2.64 nM; Kd [8]: 0.742 nM; koff [8]: 0.000245 s⁻¹; kon [8]: 330000 M⁻¹ s⁻¹ |
| isotype control antibody (as isotype control-DT3C conjugate) |  |  |  |  |  |  |  |  | Max inhibition on cell viability (%), antibody-DT3C conjugate on U266 cells [10]: 17.8% |
| mouse anti-BCMA monoclonal antibody B1H2 (antibody, V domains shown, Hybridoma-derived mouse mAb purified on Protein A; also called Mouse B1H2; mouse antibody B1H2) VH: EVQLQQSGPELVKPGASVKMSCKASGYTLTNYVMHWMKQKPGQGLEWIGFIIPFNDGTKYNEHFKGKATLTSDKSSNTAYMVLSSLTSEDSAVYYCARYDFEGYFDVWGAGTTVTVSS VL: DIQMTQTTSSLSASLGDRVTISCSASQDITNFLNWYQQKPDGTVKLLIYSTSRLHSGVPSRFSGSGSGTDYSLTISNLEPEDIATYYCQQYSNLPWTFGGGTNLEIK |  | 8.28 |  |  |  | 0.177 | 31.4 | 0.613 | EC50 [1]: 0.702 nM; IC50 [2]: 6.09 nM; IC50 [11]: 1.03 nM; Kd [12]: 0.0757 nM; koff [12]: 0.000783 s⁻¹; kon [12]: 1.03e+07 M⁻¹ s⁻¹; EC50 [14]: 0.885 nM; IC50 [15]: 0.282 nM; Kd [16]: 0.203 nM; koff [16]: 0.0011 s⁻¹; kon [16]: 5.42e+06 M⁻¹ s⁻¹ |
| chimeric B1H2 antibody (antibody, human IgG1, kappa, V domains shown, Mouse variable domains fused to human IgG1 / kappa constant regions, made in 293F cells) VH: EVQLQQSGPELVKPGASVKMSCKASGYTLTNYVMHWMKQKPGQGLEWIGFIIPFNDGTKYNEHFKGKATLTSDKSSNTAYMVLSSLTSEDSAVYYCARYDFEGYFDVWGAGTTVTVSS VL: DIQMTQTTSSLSASLGDRVTISCSASQDITNFLNWYQQKPDGTVKLLIYSTSRLHSGVPSRFSGSGSGTDYSLTISNLEPEDIATYYCQQYSNLPWTFGGGTNLEIKR | 0.0839 |  | 0.673 |  |  | 0.226 | 190 | 0.953 |  |
| huB1H2-V10 (antibody, human IgG1, kappa, V domains shown, Humanized IgG1/kappa; cell supernatant in the Octet assay, purified antibody in Biacore, ELISA and FACS) VH: QVQLVQSGAEVKKPGASVKVSCKASGYTLTNYVMHWVRQAPGQGLEWIGFIIPFNDGTKYNEHFKGRVTITSDTSISTAYMQLSSLRSEDTAVYYCARYDFEGYFDVWGQGTLVTVSS VL: DIQMTQSPSSLSASVGDRVTITCSASQDITNFLNWYQQKPGKAPKLLIYSTSRLHSGVPSRFSGSGSGTDFTLTISSLQPEDIATYYCQQYSNLPWTFGQGTKVEIKR | 0.289 | 10.2 | 2.02 | 0.000733 | 363000 | 0.47 | ~25400 | 1.2 | koff [3]: 0.00788 s⁻¹; kon [3]: 2.73e+07 M⁻¹ s⁻¹; IC50 (nM), cell killing activity of antibody-DT3C conjugate on U266 cells (internalization assay) [18]: 0.19 nM; Max inhibition on cell viability (%), antibody-DT3C conjugate on U266 cells [18]: 99.7%; IC50 [15]: 1.51 nM |
| huB1H2-V33 (antibody, human IgG1, kappa, V domains shown, Humanized IgG1/kappa; cell supernatant in the Octet assay, purified antibody in Biacore, ELISA and FACS) VH: QVQLVQSGAEVKKPGASVKVSCKASGYTLTNYVMHWVRQAPGQGLEWIGFIIPFNDGTKYNEHFKGRVTITSDTSISTAYMQLSSLRSEDTAVYYCARYDFEGYFDVWGQGTLVTVSS VL: DIQMTQSPSSLSASVGDRVTITCSASQDITNFLNWYQQKPGKAPKLLIYSTSRLHSGVPSRFSGSGSGTDFTFTISSLQPEDIATYYCQQYSNLPWTFGQGTKVEIKR | 0.349 | 7.05 | 0.349 | 0.00341 | 9.76e+06 | 0.439 | ~176 | 0.865 | koff [3]: 0.00341 s⁻¹; kon [3]: 9.76e+06 M⁻¹ s⁻¹; IC50 (nM), cell killing activity of antibody-DT3C conjugate on U266 cells (internalization assay) [18]: 0.14 nM; Max inhibition on cell viability (%), antibody-DT3C conjugate on U266 cells [18]: 99.9%; IC50 [15]: 1.45 nM |
| huB1H2-V21 (antibody, human IgG1, kappa, V domains shown) VH: QVQLVQSGAEVKKPGASVKVSCKASGYTLTNYVMHWMRQAPGQGLEWIGFIIPFNDGTKYNEHFKGRVTITRDTSISTAYMQLSSLRSEDTAVYYCARYDFEGYFDVWGQGTLVTVSS VL: DIQMTQSPSSLSASVGDRVTITCSASQDITNFLNWYQQKPGKAPKLLIYSTSRLHSGVPSRFSGSGSGTDYTLTISSLQPEDIATYYCQQYSNLPWTFGQGTKVEIKR |  |  | 7.12 | 0.00142 | 199000 |  |  |  |  |
| huB1H2-V22 (antibody, human IgG1, kappa, V domains shown) VH: QVQLVQSGAEVKKPGASVKVSCKASGYTLTNYVMHWVRQAPGQGLEWIGFIIPFNDGTKYNEHFKGRVTITSDTSISTAYMQLSSLRSEDTAVYYCARYDFEGYFDVWGQGTLVTVSS VL: DIQMTQSPSSLSASVGDRVTITCSASQDITNFLNWYQQKPGKAPKLLIYSTSRLHSGVPSRFSGSGSGTDYTLTISSLQPEDIATYYCQQYSNLPWTFGQGTKVEIKR |  |  | 3.77 | 0.000862 | 229000 |  |  |  |  |
| huB1H2-V23 (antibody, human IgG1, kappa, V domains shown) VH: QVQLVQSGAEVKKPGASVKVSCKASGYTLTNYVMHWVRQAPGQGLEWIGFIIPFNDGTKYNEHFKGRVTITRDKSISTAYMQLSSLRSEDTAVYYCARYDFEGYFDVWGQGTLVTVSS VL: DIQMTQSPSSLSASVGDRVTITCSASQDITNFLNWYQQKPGKAPKLLIYSTSRLHSGVPSRFSGSGSGTDYTLTISSLQPEDIATYYCQQYSNLPWTFGQGTKVEIKR |  |  | 20.4 | 0.00214 | 105000 |  |  |  |  |
| huB1H2-V24 (antibody, human IgG1, kappa, V domains shown) VH: QVQLVQSGAEVKKPGASVKVSCKASGYTLTNYVMHWVRQAPGQGLEWIGFIIPFNDGTKYNEHFKGRVTITSDKSISTAYMQLSSLRSEDTAVYYCARYDFEGYFDVWGQGTLVTVSS VL: DIQMTQSPSSLSASVGDRVTITCSASQDITNFLNWYQQKPGKAPKLLIYSTSRLHSGVPSRFSGSGSGTDYTLTISSLQPEDIATYYCQQYSNLPWTFGQGTKVEIKR |  |  | 6.1 | 0.001 | 164000 |  |  |  |  |
| BCMA BM1, full-length antibody containing the BCMA-binding portion of GSK2857916 (antibody, human IgG1, kappa, V domains shown, Prepared in house from the full heavy and light chains; also called benchmark; positive control) VH: QVQLVQSGAEVKKPGSSVKVSCKASGGTFSNYWMHWVRQAPGQGLEWMGATYRGHSDTYYNQKFKGRVTITADKSTSTAYMELSSLRSEDTAVYYCARGAIYDGYDVLDNWGQGTLVTVSS VL: DIQMTQSPSSLSASVGDRVTITCSASQDISNYLNWYQQKPGKAPKLLIYYTSNLHSGVPSRFSGSGSGTDFTLTISSLQPEDFATYYCQQYRKLPWTFGQGTKLEIKR |  |  |  |  |  |  | 0.186 | 8.86 | IC50 (nM), cell killing activity of antibody-DT3C conjugate on U266 cells (internalization assay) [18]: 1.55 nM; Max inhibition on cell viability (%), antibody-DT3C conjugate on U266 cells [18]: 97%; EC50 [14]: 17.7 nM |

Reference: patent US20230055711A1 (BIOSION, published 2023)
